In patent US20100330617A1 (Sanofi, published 2010):

Biological target: T1, bovine serum albumin (bovine, UniProt P02769 25-607)
T1 construct: Control resin with an equimolar amount of BSA coupled; also called BSA; BSA-agarose resin
Assay: affinity chromatography of murine liver extract on BSA control resin, SDS-PAGE and silver staining

T1 sequence (P02769 25-607 limits assumed): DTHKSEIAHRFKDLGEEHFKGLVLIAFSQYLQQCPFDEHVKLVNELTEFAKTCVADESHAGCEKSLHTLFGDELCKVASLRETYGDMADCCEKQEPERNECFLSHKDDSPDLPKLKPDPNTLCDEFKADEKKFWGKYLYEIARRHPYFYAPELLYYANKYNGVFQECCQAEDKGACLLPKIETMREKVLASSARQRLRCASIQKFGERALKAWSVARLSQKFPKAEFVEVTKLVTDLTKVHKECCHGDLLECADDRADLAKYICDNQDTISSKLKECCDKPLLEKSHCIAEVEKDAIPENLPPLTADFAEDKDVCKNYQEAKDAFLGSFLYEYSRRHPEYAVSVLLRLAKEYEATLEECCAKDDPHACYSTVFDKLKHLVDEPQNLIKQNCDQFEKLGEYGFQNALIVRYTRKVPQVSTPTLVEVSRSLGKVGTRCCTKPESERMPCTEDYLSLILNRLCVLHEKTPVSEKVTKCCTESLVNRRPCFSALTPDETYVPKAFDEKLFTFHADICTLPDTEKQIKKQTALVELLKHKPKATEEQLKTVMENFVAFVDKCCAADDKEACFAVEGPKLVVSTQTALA

B1: endogenous LIMP-2 from murine liver extract (75 kD GC binding protein) (receptor)
chain: MGRCCFYTAGTLSLLLLVTSVTLLVARVFQKAVDQTIEKNMVLQNGTKVFNSWEKPPLPVYIQFYFFNVTNPEEILQGEIPLLEEVGPYTYRELRNKANIQFGENGTTISAVTNKAYVFERNQSVGDPNVDLIRTINIPLLTVVDLAQLTLLRELIEAMLKAYQQKLFVIHTVHELLWGYKDEILSLVHIFKPDVSPNFGLFYERNGTNDGEYVFLTGEDNYLNFSKIVEWNGKTSLDWWTTDTCNMINGTDGDSFHPLISKDEVLYLFPSDLCRSVHITFSSFENVEGLPAFRYKVPAEILANTSENAGFCIPEGNCMDSGVLNISICKNGAPIIMSFPHFYQADEKFVSAIKGMHPNKEEHESFVDINPLTGIILRGAKRFQINTYVRKLDDFVETGDIRTMVFPVMYLNESVLIDKETANQLKSVINTTLVVTNIPYIIMALGVFFGLVFTWLACRGQGSMDEGTADERAPLIRT
notes: Identified by mass spectrometry as LIMP-2; N-glycosylated (75 kD, 54 kD after PNGase-F); also called 75 kD polypeptide
binding result: no binding
